The values that follow are results of earlier work, collected in paper PMC5067215.

The data set has as its target CD74 (Homo sapiens) (UniProt P04233).
Chain of UniProt P04233 (P04233 73-296): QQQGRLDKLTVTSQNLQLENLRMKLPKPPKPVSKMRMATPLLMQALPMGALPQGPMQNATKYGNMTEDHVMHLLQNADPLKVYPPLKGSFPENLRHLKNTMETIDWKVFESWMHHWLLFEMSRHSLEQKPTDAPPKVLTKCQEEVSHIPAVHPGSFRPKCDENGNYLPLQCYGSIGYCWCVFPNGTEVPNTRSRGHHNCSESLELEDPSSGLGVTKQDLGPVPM

Take D-DT (from UniProt P30046): the Kd was 5.42 nM.

A word on the Kd: it is the equilibrium constant for the complex coming apart.
